Article PMC5819227

Biological target: Enc-I3-01-MhIHL-V54L (engineered ketohydroxyglutarate aldolase from T. maritima fused at its C terminus to the (+)-γ-lactamase mutant MhIHL-V54L from Microbacterium hydrocarbonoxydans) (Thermotoga maritima | Microbacterium hydrocarbonoxydans)
Experiment: negative-stain transmission electron microscopy; purified protein at 1.33 mg/mL adsorbed onto copper grids, stained with 3% uranyl acetate

“Enc-I3-01-MhIHL-V54L (engineered ketohydroxyglutarate aldolase from T. maritima fused at its C terminus to the (+)-γ-lactamase mutant MhIHL-V54L from Microbacterium hydrocarbonoxydans)” gave a stoichiometry N of 60 subunits.
